The text below walks through data of US20230051715A1 (MABWELL THERAPEUTICS, published 2023).

Test [1] deals with T1, human C1s mutant M7 (D343Y & E351A) (human, UniProt P09871 16-688).
T1 construct: The entry is the mutant itself
T1 sequence: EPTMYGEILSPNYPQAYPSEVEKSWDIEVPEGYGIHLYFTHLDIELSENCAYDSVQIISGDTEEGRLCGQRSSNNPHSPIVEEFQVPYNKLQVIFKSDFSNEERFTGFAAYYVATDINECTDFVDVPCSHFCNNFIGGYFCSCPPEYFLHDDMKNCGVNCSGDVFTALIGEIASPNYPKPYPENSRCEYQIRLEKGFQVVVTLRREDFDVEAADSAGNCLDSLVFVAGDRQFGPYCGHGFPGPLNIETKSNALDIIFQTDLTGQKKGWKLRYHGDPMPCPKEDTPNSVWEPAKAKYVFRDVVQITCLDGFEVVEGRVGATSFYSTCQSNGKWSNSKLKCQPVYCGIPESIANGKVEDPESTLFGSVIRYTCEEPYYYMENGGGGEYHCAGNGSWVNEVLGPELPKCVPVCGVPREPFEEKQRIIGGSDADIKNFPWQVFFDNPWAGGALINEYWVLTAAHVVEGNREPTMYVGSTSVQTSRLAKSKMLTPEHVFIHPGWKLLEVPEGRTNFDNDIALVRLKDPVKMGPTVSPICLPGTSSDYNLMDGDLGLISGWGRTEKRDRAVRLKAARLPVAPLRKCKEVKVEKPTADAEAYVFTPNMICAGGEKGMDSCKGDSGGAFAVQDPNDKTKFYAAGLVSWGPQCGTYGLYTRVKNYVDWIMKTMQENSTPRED
The test is described as follows: ELISA, plate coated with human C1s mutant M7: D343Y, E351A, OD450nm. As for the experimental part: ELISA was carried out by first coating 96-well plates with 200 ng/well of full-length or truncated C1s proteins overnight. The next morning, plates were blocked with SuperBlock T20 blocking buffer (Thermo Scientific 37536) for 1 h with gentle shaking. Then, various concentrations of anti-C1s antibodies diluted in SuperBlock T20 blocking buffer were added to the plates and incubated for 1 h with gentle shaking. Mouse IgG (Sigma-Aldrich 15381) and human IgG1 (BioXCell BP0297) were used as negative controls. The plates were washed before incubating with HRP conjugated secondary antibodies diluted in SuperBlock T20 blocking buffer (goat anti-mouse IgG (H+L) cross-adsorbed secondary antibody HRP (Invitrogen G-21040) or goat anti-human IgG antibody, HRP conjugate (Millipore AP309P)) for 1 h with gentle shaking. At last, the plates were washed and color developed with ELISA liquid HRP substrate (Sigma-Aldrich), followed by stopping the reaction with addition of 1M H₂SO₄ in the same volume as the ELISA liquid substrate. Bound antibody was measured by absorbance at OD₄₅₀ₙₘ.
Binding of anti-C1s antibodies to mutants M1-M20 of human C1s was measured by ELISA as described in Example 4, and results are shown in FIGS. 6B-6U. All anti-C1s humanized variants including hz2-7(H1L2), hz2-8(H1L2 G80A) and hz2-8(H1L2 G80A/T82A) maintained strong binding properties to the majority (16 out of 20) of C1s mutants including M1 (FIG. 6B), M2 (FIG. 6C), M3 (FIG. 6D). M4 (FIG. 6E), M7 (FIG. 6H), M8 (FIG. 6I), M10 (FIG. 6K), M11 (FIG. 6L), M12 (FIG. 6M), M13 (FIG. 6N), M15 (FIG. 6P), M16 (FIG. 6Q), M17 (FIG. 6R), M18 (FIG. 6S), M19 (FIG. 6T) and M20 (FIG. 6U).

In test [2] the target is T2, cynomolgus monkey C1s (produced in house) (cynomolgus monkey, UniProt P09871 16-685 (human entry), limits assumed).
T2 construct: also called CyC1s
T2 chain: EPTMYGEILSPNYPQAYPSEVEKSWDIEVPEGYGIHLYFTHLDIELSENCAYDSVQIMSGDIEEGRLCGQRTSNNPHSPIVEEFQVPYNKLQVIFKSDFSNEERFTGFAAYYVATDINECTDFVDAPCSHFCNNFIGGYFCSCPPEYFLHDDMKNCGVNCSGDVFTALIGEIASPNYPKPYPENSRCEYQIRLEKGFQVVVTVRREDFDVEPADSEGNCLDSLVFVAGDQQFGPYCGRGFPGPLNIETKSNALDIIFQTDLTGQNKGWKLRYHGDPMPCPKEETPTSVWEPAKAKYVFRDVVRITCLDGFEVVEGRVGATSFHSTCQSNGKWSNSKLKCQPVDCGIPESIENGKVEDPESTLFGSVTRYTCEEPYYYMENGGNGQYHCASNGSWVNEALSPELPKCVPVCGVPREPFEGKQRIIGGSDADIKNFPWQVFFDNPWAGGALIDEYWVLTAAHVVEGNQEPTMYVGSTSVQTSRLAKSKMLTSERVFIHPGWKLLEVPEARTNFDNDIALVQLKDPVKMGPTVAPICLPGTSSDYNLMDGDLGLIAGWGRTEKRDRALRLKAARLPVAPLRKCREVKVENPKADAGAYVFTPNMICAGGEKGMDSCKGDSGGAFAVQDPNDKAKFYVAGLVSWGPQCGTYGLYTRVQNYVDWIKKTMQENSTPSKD
Put plainly: ELISA, plate coated with 200 ng/well CyC1s, OD450nm. As for the experimental part:
The next morning, plates were blocked with SuperBlock T20 blocking buffer (Thermo Scientific 37536) for 1 h with gentle shaking. Then, various concentrations of anti-C1s antibodies diluted in SuperBlock T20 blocking buffer were added to the plates and incubated for 1 h with gentle shaking. Mouse IgG (Sigma-Aldrich I5381) and Human IgG1 (BioXCell BP0297) were used as negative controls. The plates were washed before incubating with HRP conjugated secondary antibodies diluted in SuperBlock T20 blocking buffer (goat anti-mouse IgG (H+L) cross-adsorbed secondary antibody HRP (Invitrogen G-21040) or goat anti-human IgG antibody, HRP conjugate (Millipore AP309P)) for 1 h with gentle shaking. At last, the plates were washed and color developed with ELISA liquid substrate (Sigma-Aldrich), followed by stopping the reaction with addition of the same volume of […] 1M H₂SO₄. Bound antibody was measured by absorbance at OD₄₅₀ₙₘ.

B1: Anti-C1s antibody hz2-7(H1L2) (antibody, V domains shown)
VH: EVQLLESGGGLVQPGGSLRLSCAASGFTFSNYFMNWVRQAPGKGLEWVSEIRLKFTNYATHYADSVKGRFTISRDDSKSTLYLQMNSLRAEDTAVYYCTRDYGSRNGYFDYWGQGTLVTVSS
VL: DIVMTQTPLSLPVTPGEPASISCRSSKSLLHSNGNTFLYWFLQKPGQSPQLLIYRMSNLASGVPDRFSGSGSGTDFTLKISRVEAEDVGVYYCMQHLEYPYTFGGGTKLEIKR
notes: Humanized, human IgG1 / kappa; also called hz2-7(1L2)
Turning to B1, the EC50 in test [1] and in test [2] was 0.015 µg/mL in each case.

B2: Anti-C1s antibody hz2-8 (H1L2 G80A) (antibody, V domains shown)
VH: QVQLVQSGAEVKKPGASVKVSCKASGFNIKEYYMHWVRQAPEQGLEWMGWIDPENADTIYAQKFQGRVTITADTSTNTAYMELSSLRSEDTAVYYCARSRLFFAYWGQGTLVTVSS
VL: DIQMTQSPKSLSASVGDRVTITCRASQDVRTALDWYQQKPGQSPKLLIYSASYRYSGVPSRFSGSGSGTDFTLTISSLQPEDFATYYCQQQYTTPYTFGQGTKLEIKR
notes: Humanized variant with G80A in HC CDR2 (already in the entry), human IgG1 / kappa
The molecule B2 came in with an EC50 in test [1] of 0.012 µg/mL.

B3: Anti-C1s antibody hz2-8 (H1L2 G80A/T82A) (antibody, V domains shown)
VH: QVQLVQSGAEVKKPGASVKVSCKASGFNIKEYYMHWVRQAPEQGLEWMGWIDPENADAIYAQKFQGRVTITADTSTNTAYMELSSLRSEDTAVYYCARSRLFFAYWGQGTLVTVSS
VL: DIQMTQSPKSLSASVGDRVTITCRASQDVRTALDWYQQKPGQSPKLLIYSASYRYSGVPSRFSGSGSGTDFTLTISSLQPEDFATYYCQQQYTTPYTFGQGTKLEIKR
notes: Humanized variant with G80A and T82A in HC CDR2 (already in the entry), human IgG1 / kappa
As for B3, the values for the 50% effective concentration (EC50) in test [1] and in test [2] were 0.011 µg/mL and 0.01 µg/mL, respectively.

B4: Anti-C1s antibody 2-8 (antibody, V domains shown)
VH: EVQLQQSGAELVRPGALVKLSCKASGFNIKEYYMHWVKQRPEQGLEWIGWIDPENGDTIYDPKFQGKASITADTSSNTAYLQLSSLTSEDTAVYYCARSRLFFAYWGQGTLVTVSA
VL: DIVMTQSHKFMSTSVGDRVSFTCKASQDVRTAVDWYQQKPGQSPKLLIYSASYRYTGVPDRFTGTGSGTDFTFTISSVQAEDLAVYFCQQQYTTPYTFGGGTKLEIKT
notes: the HC/LC entries may hold it too; also called clone 2-8
In the case of B4, in test [2], the response was half-maximal at 0.012 µg/mL (EC50).

B5: Anti-C1s antibody 2-7 (antibody, human IgG1, kappa, V domains shown)
VH: EVKLEESGGGLVPPGGSMKLSCVASGFTFSNYFMNWVRQSPEKGLEWVAEIRLKFTNYATHYAESVEGRFTISRDDSKSSVYLQMNNLRAEDTGIYYCTRDYGSRNGYFDYWGQGTTLTVSS
VL: DIVMTQAAPSVPVTPGESVSISCRSSKSLLHSNGNTFLYWFLQRPGQSPQLLIYRMSNLASGVPDRFSGSGSGTAFTLRVSRVEAEDVGIYYCMQHLEYPYTFGGGTKLEIKT
notes: the HC/LC entries may hold it too; also called clone 2-7
As to B5, a half-maximal response in test [2] (EC50) required 0.011 µg/mL.
